Experimental data published in paper PMC5004264, “The pesticidal Cry6Aa toxin from Bacillus thuringiensis is structurally similar to HlyE-family alpha pore-forming toxins” (BMC Biology, 2016).

T1: Cry6Aa trypsin-resistant core, polypeptide chain 12-390 (Bacillus thuringiensis, UniProt Q45757 12-390)
T1 construct: cut after Arg11 and after Arg390; Never separated from the C-terminal peptide without reduction; Cys88 is disulfide bonded to Cys451 of the peptide; also called main body of the toxin; major core
T1 sequence (looked up): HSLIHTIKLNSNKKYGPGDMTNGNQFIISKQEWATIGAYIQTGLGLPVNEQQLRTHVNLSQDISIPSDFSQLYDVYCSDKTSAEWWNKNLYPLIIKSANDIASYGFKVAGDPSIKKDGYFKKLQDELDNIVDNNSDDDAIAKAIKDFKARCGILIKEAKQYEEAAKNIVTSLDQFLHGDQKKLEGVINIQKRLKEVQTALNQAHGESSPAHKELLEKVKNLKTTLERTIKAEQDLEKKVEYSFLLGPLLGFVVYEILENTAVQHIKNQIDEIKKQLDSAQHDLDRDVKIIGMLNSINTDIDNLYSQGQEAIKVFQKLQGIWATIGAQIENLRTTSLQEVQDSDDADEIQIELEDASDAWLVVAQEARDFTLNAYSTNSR


Tests used:
[1] = target: full-length, wild-type Cry6Aa1 (Bacillus thuringiensis) (UniProt Q45757); assay: SEC + other: non-denaturing and denaturing SDS-PAGE; Superdex 75 26/90, 25 mM CAPS pH 10, 50 mM NaCl, 2.5 ml/min; first peak at the void volume held dimers (only monomers on denaturing SDS-PAGE), second peak predominantly monomer
[2] = target: T1, Cry6Aa trypsin-resistant core, …; assay: intact mass LC-MS; conditions: both partners purified

Molecule | stoichiometry N [1] | binding result [2]
full-length, wild-type Cry6Aa1 (from UniProt Q45757 1-475) (natural protein) | 2 | –
NSNLEYKCPENNFMIYWYNNSDWYNNSDWYNN (Cys451 is disulfide bonded to Cys88 of chain 12-390) [Cry6Aa C-terminal peptide CTP1 (residues 444-475)] | – | binds
CPENNFMIYWYNNSDWYNNSDWYNN (Minor species of the trypsin-processed toxin) [Cry6Aa C-terminal peptide CTP2 (residues 451-475)] | – | binds
